First the molecules themselves.
B1: human SUN1 SUN domain (domain or fragment)
chain: GITEAQARAIVNSALKLYSQDKTGMVDFALESGGGSILSTRCSETYETKTALMSLFGIPLWYFSQSPRVVIQPDIYPGNCWAFKGSQGYLVVRLSMMIHPAAFTLEHIPKTLSPTGNISSAPKDFAVYGLENEYQEEGQLLGQFTYDQDGESLQMFQALKRPDDTAFQIVELRIFSNWGHPEYTCLYRFRVHGEPVK
B2: Bacteriophage T5 Receptor Binding Protein RBPpb5 (natural protein)
chain: MSFFAGKLNNKSILSLRRGSGGDTNQHINPDSQTIFHSDMSHVIITETHSTGLRLDQGAGDYYWSEMPSRVTQLHNNDPNRVVLTEIEFSDGSRHMLSGMSMGVGAKAYGIINPQIMSQGGLKTQITASADLSLDVGYFNTGTSGTIPQKLRDGTGCQHMFGAFSGRRGFASSAMYLGGAALYKSAWSGSGYVVADAGTLTIPSDYVRHPGARNFGFNAIYVRGRSCNRVLYGMEGPNYTTGGAVQGASSSGALNFTYNPSNPESPKYSVGFARADPTNYAYWESMGDPNDSANGPIGIYSEHLGIYPSKITWYVTNLVYNGSGYNIDGGLFNGNDIKLSPREFIIKGVNVNNTSWKFINFIEKNFNVGNRADFRDVGCNLSKDSPSTGISGIATFGLPTTESNNAPSIKGGNVGGLHANVVSIYNFLPSASWYVSSNPPKIGNNYGDVWSENLLPLRLLGGSGSTILSGNIVFQGNGSVHVGTVGLDLNSSRNGAIVCTMEFIDDTWLSAGGIGCFNPTEMLSQGAEYGDSRFRIGGNTINKKLHQILSLPAGEYVPFFTIKGTVVNACKLQAAAYNPTPYWVSGLPGSVGQTGYYTLTYYMRNDGNNNISIWLDSSMSNIIGMKACLPNIKLIIQRLT
B3: nanobody 8C (VHH)
VHH: EVQLEESGGGLVQAGGSLTLSCAASGFTFDDYAMGWYRQAPGKERVGVSCISRTDGYTYYLDSVKGRFTISTDHAKHTVYLQMNNLKPDDTGLYYCAADADPEYGSRCPDPYYGMDYWGKGILVTVSS

Data set [1] deals with cytosolic domain of the major export gate protein YscV (Yersinia enterocolitica). The data set is described as follows: crystal structure; 9:9:9 YscV:YscX:YscY complex, 4.1 Å, 18 copies of the 1:1:1 complex in the asymmetric unit.
Data set [2] concerns the target HucM, scaffold subunit of the [NiFe]-hydrogenase Huc (Mycobacterium smegmatis). The data set is described as follows: cryo-EM structure; 833 kDa Huc complex: 8 HucL, 8 HucS, 4 HucM.
Data set [3] deals with nudivirus polyhedrin (occlusion body protein of Tipula oleracea nudivirus) (Tipula oleracea nudivirus). Nature of the data set: crystal structure.
Data set [4] has as its target HucSL heterodimer (Mycobacterium smegmatis). The data set is described as follows: cryo-EM structure; 833 kDa Huc complex: 8 HucL, 8 HucS, 4 HucM.
The target in data set [5] is Mycobacterium smegmatis MceG (Mycobacterium smegmatis). Nature of the data set: cryo-EM structure.
The target of data set [6] is tyrosine O-methyltransferase MfnG from Streptomyces drozdowiczii (Streptomyces drozdowiczii). Nature of the data set: crystal structure; MfnG with SAH and soaked L-Tyr; five crystal forms with one to four dimers per asymmetric unit.
Data set [7] deals with the molecule itself. Nature of the data set: crystal structure; SUN1-KASH6 complex, nine SUN domains and six KASH peptides.
For data set [8], the target named is T1, E. coli outer-membrane transporter FhuA (E. coli, UniProt P06971 34-747).
T1 sequence (looked up): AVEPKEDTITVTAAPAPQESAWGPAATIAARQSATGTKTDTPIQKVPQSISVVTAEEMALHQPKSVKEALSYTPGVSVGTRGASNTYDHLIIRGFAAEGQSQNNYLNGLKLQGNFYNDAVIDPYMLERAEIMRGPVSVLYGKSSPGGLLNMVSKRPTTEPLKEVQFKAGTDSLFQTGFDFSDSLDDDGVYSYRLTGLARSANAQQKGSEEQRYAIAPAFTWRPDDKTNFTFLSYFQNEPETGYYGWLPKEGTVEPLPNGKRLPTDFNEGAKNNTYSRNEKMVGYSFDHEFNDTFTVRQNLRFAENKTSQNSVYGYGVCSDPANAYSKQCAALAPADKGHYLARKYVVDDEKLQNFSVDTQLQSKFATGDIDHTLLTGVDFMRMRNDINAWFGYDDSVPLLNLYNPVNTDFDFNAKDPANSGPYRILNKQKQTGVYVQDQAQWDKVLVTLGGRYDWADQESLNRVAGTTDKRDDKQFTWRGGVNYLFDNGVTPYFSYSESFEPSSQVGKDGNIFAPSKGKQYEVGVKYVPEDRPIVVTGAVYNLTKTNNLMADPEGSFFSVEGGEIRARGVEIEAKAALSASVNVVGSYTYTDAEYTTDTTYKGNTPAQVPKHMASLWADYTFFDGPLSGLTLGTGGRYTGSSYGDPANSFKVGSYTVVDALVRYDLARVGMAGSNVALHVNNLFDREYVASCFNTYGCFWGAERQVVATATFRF
Nature of the data set: cryo-EM structure. The note with it: both partners purified.

The data set “human SUN1 SUN domain” concerns the target B1. Nature of the data set: crystal structure; SUN1-KASH6 complex, nine SUN domains and six KASH peptides. The note with it: both partners purified.
Data set [9] has as its target phosphodiesterase domain of 2',3'-cyclic nucleotide 3'-phosphodiesterase (CNPase) (Mus musculus (assumed; species not …, UniProt P16330). The data set is described as follows: crystal structure; nanobodies co-crystallized with the phosphodiesterase domain of CNPase. The note with it: both partners purified.

Where “and” joins values, the source holds several entries; their conditions need not be identical. Equal entries are not always repeated.

phosphodiesterase domain of 2',3'-cyclic nucleotide 3'-phosphodiesterase (CNPase) (Mus musculus, sequence (P16330 whole entry, looked up, the tested form may be a part): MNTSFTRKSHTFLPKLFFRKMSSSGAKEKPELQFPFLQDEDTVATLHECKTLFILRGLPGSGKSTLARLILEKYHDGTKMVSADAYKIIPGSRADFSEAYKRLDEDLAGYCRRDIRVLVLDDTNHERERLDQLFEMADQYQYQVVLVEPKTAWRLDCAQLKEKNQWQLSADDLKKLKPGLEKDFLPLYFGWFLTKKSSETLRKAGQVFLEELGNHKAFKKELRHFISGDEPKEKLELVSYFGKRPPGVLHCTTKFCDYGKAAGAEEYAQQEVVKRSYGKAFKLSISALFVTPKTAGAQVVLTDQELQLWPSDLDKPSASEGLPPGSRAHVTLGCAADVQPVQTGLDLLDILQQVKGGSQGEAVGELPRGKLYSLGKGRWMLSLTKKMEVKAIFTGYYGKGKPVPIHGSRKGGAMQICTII

In data set [1], “cytosolic domain of the major export gate protein YscV (domain or fragment)” registered a stoichiometry N of 9. In the case of YscX:YscY heterodimer (complex), in data set [1], the stoichiometry N (YscX:YscY complexes per YscV nonamer) came to 9. In turn, “HucM, scaffold subunit of the [NiFe]-hydrogenase Huc (natural protein)” had a stoichiometry N in data set [2] of 4. Molecule “nudivirus polyhedrin (occlusion body protein of Tipula oleracea nudivirus) (natural protein)” showed a stoichiometry N in data set [3] of 2. Molecule HucSL heterodimer (complex) had a stoichiometry N in [4] of 2. In the case of Mycobacterium smegmatis MceG (enzyme), in data set [5], the stoichiometry N is 2. In [6], “tyrosine O-methyltransferase MfnG from Streptomyces drozdowiczii (enzyme)” yielded a stoichiometry N of 2.

As for B1, the “stoichiometry N” value in data set [7] is 3 and 9. On to B2, for which the binding result in data set [8] was “binds”. TGQLFQKSVDAAPTQQEDSWTSLEHILWPFTRLRHNGPPPV [KASH6 peptide, the KASH domain of JAW1/LRMP]: in the data set with human SUN1 SUN domain, the “stoichiometry N” value was 2 KASH6 peptides per SUN1 trimer.

On to B3, for which the binding result in data set [9] is listed as “binds”.

In general, stoichiometry N refers to a count of units in the complex or per binding partner.

The values are drawn from article PMC10792529 (Proteins, 2023).
